Results published in patent publication US20080254027A1 (published 2008).

Target: T1, CD5-His-GST (human, UniProt P06127 25-372)
T1 sequence: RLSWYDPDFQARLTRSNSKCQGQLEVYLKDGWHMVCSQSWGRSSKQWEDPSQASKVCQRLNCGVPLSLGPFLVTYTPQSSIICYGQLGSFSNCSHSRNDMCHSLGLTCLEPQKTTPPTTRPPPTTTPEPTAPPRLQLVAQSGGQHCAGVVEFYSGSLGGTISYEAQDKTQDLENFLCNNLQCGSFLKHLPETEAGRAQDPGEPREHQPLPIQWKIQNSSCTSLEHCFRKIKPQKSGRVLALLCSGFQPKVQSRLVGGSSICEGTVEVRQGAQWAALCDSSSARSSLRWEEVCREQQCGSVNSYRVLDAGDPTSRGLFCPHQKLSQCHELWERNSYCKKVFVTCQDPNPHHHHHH
Experiment: Biacore

Kd: ~1.5 nM
B1: 5D7_H0L0_IgG1_WT (antibody, V domains shown)
VH: QVTLKESGPGILKPSQTLSLTCSFSGFSLSTSGMGVGWIRQPSGKGLEWLAHIWWDDDVYYNPSLKNQLTISKDASRDQVFLKITNLDTADTATYYCVRRRATGTGFDYWGQGTTLTVSS
VL: NIVMTQSHKFMSTSVGDRVSIACKASQDVGTAVAWYQQKPGQSPKLLIYWTSTRHTGVPDRFTGSGSGTDFTLTITNVQSEDLADYFCHQYNSYNTFGSGTRLELKR
